Results: article PMC4507770

Molecular target: GST–XJTGB3 fusion protein (BSMV Xinjiang strain TGB3) (barley stripe mosaic virus, Xinjiang strain)
Assay: pull-down

“XJTGB1_(T395A/T401A) double mutant, C-terminal His-tagged (natural protein)” was tested, and the TGB3 protein-binding efficiency compared with wt XJTGB1 was 40% and the percent less effective binding than wt XJTGB1 was 40 % less.
